Measurements as given in US20130273046A1 (published 2013).
Blank lines part the entries; values can stand above or below the binder they belong to.

Target: human EDAR-Fc
Assay: SPR (Biacore); Fab fragment

human EDAR-Fc, sequence (chain, as listed by the source): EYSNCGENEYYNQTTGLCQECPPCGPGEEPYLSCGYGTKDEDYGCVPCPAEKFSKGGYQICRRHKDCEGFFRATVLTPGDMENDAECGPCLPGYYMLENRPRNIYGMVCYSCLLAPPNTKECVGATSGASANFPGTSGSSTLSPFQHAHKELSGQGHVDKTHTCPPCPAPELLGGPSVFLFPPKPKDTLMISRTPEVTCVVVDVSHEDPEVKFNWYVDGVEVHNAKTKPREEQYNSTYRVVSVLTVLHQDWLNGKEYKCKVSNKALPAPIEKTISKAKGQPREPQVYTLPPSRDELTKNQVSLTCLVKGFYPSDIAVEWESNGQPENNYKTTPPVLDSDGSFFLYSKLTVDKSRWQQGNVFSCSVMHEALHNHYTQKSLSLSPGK

Kd: 1.58 nM
B1: mAbEDAR6 (antibody, V domains shown)
VH: EVQLQQSGPELVKPGASVKMSCKASGYSFTGYNMHWVKQSHGKSLEWIGYIDPYNGATSKNQKFKGKATLTVDKSSTTAYIQLNSLTSEDSAVYYCARYYYGDYHWYFDVWGAGTTVTVSS
VL: DVVMTQTPLSLPVSLGDQASISCRSSQSLVHSNGNTYLHWYLQQPGQSPKLLIYKVSNRFSGVPDRFSGSGSGTDFTLKISRVEAEDLGVYFCSQHTHVPPTFGAGTKLELKR

Kd: 1 nM
B2: mAbEDAR2 (antibody, V domains shown)
VH: QVQLQQPGAELVKPGASVKLSCKASGYTFTSYWMQWVKQRPGQGIEWIGEIDPSDSYTYYNQKFKGKATLTIDKSSSTAYMQLSSLTSEDSAVYYCSRKNYYRGMDYWGQGTSVTVSS
VL: DVLMTQTPLSLPVSLGDQASISCRSSQNIVQSNGNTYLEWYLQKPGQSPKLLIYKVSNRFSGVPDRFSGSGSGTDFTLKISRVEADDLGVYYCFQVSHVPYTFGGGTKLEIKR
